Data from patent publication US20110250207A1 (OREGON HEALTH AND SCIENCE UNIVERSITY, published 2011).

Key:
[1] = target: fXI with Lys^83 and Gln^84 replaced with alanine, P03951
[2] = target: T1, cow fXI (cattle, UniProt Q5NTB3 19-625); assay: immunoprecipitation from plasma with 14E11 beads, western blot with biotinylated 14E11
T1 construct: mature; Endogenous protein immunoprecipitated from plasma; also called cattle fXI
Description: Plasma was obtained from human, cattle, horse, pig, rabbit, raccoon, tiger, baboon, cat, chicken, dog African elephant and llama subjects, and serum was obtained from anteater. Plasma from a fXI-deficient human subject was used as a negative control. Plasma or serum (500 μl) was collected into sodium citrate and mixed with 500 μl Tris-HCl. […] The beads were washed once with 1 ml Tris-HCl, then eluted with 50 μl of non-reducing SDS-sample buffer.

[3] = target: T2, murine factor XI (murine, UniProt Q91Y47 19-624); assay: immunoblot of recombinant proteins with 14E11 (FIG. 10A)
T2 construct: also called murine fXI (M); recombinant murine fXI

Row | binding result [2] | binding result [3] | Binder | rate of activation in solution relative to fXI^WT [1] | specific activity in a contact activation initiated clotting assay relative to fXI^WT [1]
1 | – | – | activated factor XII (protein) IPPWEAPKEHKYKAEEHTVVLTVTGEPCHFPFQYHRQLYHKCTHKGRPGPQPWCATTPNFDQDQRWGYCLEPKKVKDHCSKHSPCQKGGTCVNMPSGPHCLCPQHLTGNHCQKEKCFEPQLLRFFHKNEIWYRTEQAAVARCQCKGPDAHCQRLASQACRTNPCLHGGRCLEVEGHRLCHCPVGYTGAFCDVDTKASCYDGRGLSYRGLARTTLSGAPCQPWASEATYRNVTAEQARNWGLGGHAFCRNPDNDIRPWCFVLNRDRLSWEYCDLAQCQTPTQAAPPTPVSPRLHVPLMPAQPAPPKPQPTTRTPPQSQTPGALPAKREQPPSLTRNGPLSCGQRLRKSLSSMTRVVGGLVALRGAHPYIAALYWGHSFCAGSLIAPCWVLTAAHCLQDRPAPEDLTVVLGQERRNHSCEPCQTLAVRSYRLHEAFSPVSYQHDLALLRLQEDADGSCALLSPYVQPVCLPSGAARPSETTLCQVAGWGHQFEGAEEYASFLQEAQVPFLSLERCSAPDVHGSSILPGMLCAGFLEGGTDACQGDSGGPLVCEDQAAERRLTLQGIISWGSGCGDRNKPGVYTDVAYYLAWIREHTVS | about 65% of the rate of fXI^WT | 100-150% of the specific activity of fXI^WT
2 | binds | binds | monoclonal antibody 14E11 (antibody, V domains shown, also called anti-murine fXI IgG 14E11; anti-fXI IgG 14E11) VH: QVQLEESGPGLVAPSQSLSITCTVSGFSLTGYGIYWVRQPPGKGLEWLGMIWGDGRTDYNSALKSRLSISKDNSKSQVFLKMNSLQTDDTARYYCARDYYGSKDYWGQGTTLTVSS VL: DIVMTQSHKFMSTSVGDRVSITCKASQDVSTAVAWYQQKPGQSPKLLIYLTSYRNTGVPDRFTGSGSGTDFTFTISSVQAEDLAVYYCQQHYKTPYSFGGGTKLERLR | – | –
